Measured values taken from US20230183354A1 (IMMIOS HOLDING B V, published 2023).

How the values were obtained:
[1] = biological target: T1, human CD103 (integrin Alpha-E) / human integrin Beta-7 heterodimer on cells (human, UniProt P38570 19-1179; P26010 20-798); assay: flow cytometry competition on CD103+CD8+ T cells; pre-incubation with unlabeled MCA708 (f4); table n=1
T1 construct: the assay field tells which cells; also called hCD103/hBeta7; CHO.K1-hCD103/hBeta7
Protocol: (§1) Percentage binding of fluorescently labeled mAbs was determined using flow cytometry. Maximum binding was set at 100%.
(§2) Percentage binding of fluorescently labeled mAbs was determined using flow cytometry. Maximum binding was set at 100%

[2] = biological target: T1, human CD103 (integrin Alpha-E) / human …; assay: flow cytometry competition on CD103+CD8+ T cells; pre-incubation with unlabeled BERACT; table n=1
Protocol: as §1, §2

[3] = biological target: T1, human CD103 (integrin Alpha-E) / human …; assay: flow cytometry competition on CD103+CD8+ T cells; pre-incubation with unlabeled 06A; table n=1
Protocol: as §1, §2

[4] = biological target: T2, recombinant hCD103/hBeta7 Fc-protein (Acro-Biosystems) (human, UniProt P38570 19-1124; P26010 20-723, limits assumed); assay: ELISA on coated recombinant human CD103/beta7 Fc-protein, OD450-620, lower right panel titled rhCD103/beta7
T2 construct: Bought protein with no catalog number and no construct limits printed; also called recombinant human CD103/Beta7; recombinant hCD103/beta7; not shown: fusion part of the bought 'Fc-protein'
Protocol: Protein coated 96-well plates were blocked in protein-free blocking buffer (Pierce) for 1.5 hour at 37° C. Plates were washed and incubated for 1 hour at RT with mAb/Fab in 0.1% Tween-20 in PBS. Next, plates were washed with PBS-T and incubated for 1 hour at RT with goat-anti-mouse IgG-HRP conjugate (Southern Biotech) for mAbs, and goat-anti-human Fab-HRP conjugate (Jackson Immuno Research) for the Fab fragments in 0.1% Tween-20 in PBS. […] Reactions were stopped with 0.5 M H2SO4 and absorbances were read at 450 and 610 nm.

[5] = biological target: T1, human CD103 (integrin Alpha-E) / human …; assay: cell-based ELISA on CHO.K1-hCD103/hBeta7 cells, Df-conjugated mAb, relative absorbance, upper panel
Protocol: (§3) Wells were washed with PBS and incubated with Rabbit anti-Mouse/IgG-HRP (1:4000, Dako) or Fab specific Goat anti-Human/IgG-HRP (1:4000; Sigma Aldrich) for 1 h at 37° C. Next, wells were washed with PBS and TMB substrate (KPL) was added. The color reaction was stopped by adding 1M HCl solution and the absorbance was measured by a microplate reader (Thermo Scientific).

[6] = biological target: T1, human CD103 (integrin Alpha-E) / human …; assay: cell-based ELISA on CHO.K1-hCD103/hBeta7 cells, relative absorbance, upper panel
Protocol: as §3

[7] = biological target: T1, human CD103 (integrin Alpha-E) / human …; assay: binding of 89Zr-labeled mAb to CHO.K1-hCD103/hBeta7 cells, bound activity in counts

T1 sequence (P38570 19-1179 limits assumed, chain 1 of 2): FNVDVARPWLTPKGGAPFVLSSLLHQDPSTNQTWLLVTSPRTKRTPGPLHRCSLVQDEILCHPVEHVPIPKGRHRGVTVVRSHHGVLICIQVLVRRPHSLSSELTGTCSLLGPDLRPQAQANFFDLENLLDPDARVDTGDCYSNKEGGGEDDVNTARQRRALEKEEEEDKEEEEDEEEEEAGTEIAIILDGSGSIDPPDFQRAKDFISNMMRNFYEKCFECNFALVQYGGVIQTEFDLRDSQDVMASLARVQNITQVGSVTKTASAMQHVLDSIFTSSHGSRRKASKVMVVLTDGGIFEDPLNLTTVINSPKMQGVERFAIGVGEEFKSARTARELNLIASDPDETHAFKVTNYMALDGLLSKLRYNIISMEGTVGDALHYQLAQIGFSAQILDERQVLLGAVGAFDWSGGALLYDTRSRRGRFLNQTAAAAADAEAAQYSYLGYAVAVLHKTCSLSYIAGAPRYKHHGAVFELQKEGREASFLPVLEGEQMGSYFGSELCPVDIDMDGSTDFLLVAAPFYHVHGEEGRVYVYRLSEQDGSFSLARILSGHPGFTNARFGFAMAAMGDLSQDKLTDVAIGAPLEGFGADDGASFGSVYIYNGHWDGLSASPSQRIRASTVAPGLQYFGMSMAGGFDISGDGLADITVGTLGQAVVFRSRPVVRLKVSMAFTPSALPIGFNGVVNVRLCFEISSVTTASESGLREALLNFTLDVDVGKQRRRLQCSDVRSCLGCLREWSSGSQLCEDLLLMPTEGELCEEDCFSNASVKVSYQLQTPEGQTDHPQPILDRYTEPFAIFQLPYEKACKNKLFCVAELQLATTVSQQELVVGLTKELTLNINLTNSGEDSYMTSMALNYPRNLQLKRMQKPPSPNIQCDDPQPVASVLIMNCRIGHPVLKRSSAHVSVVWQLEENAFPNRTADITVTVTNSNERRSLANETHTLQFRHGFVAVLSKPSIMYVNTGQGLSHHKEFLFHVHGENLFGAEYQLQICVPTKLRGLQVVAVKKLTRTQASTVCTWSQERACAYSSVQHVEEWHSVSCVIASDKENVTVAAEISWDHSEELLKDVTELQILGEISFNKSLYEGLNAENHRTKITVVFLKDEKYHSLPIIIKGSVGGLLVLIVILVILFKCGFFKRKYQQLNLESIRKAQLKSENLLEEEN
T1 sequence (P26010 20-798 limits assumed, chain 2 of 2): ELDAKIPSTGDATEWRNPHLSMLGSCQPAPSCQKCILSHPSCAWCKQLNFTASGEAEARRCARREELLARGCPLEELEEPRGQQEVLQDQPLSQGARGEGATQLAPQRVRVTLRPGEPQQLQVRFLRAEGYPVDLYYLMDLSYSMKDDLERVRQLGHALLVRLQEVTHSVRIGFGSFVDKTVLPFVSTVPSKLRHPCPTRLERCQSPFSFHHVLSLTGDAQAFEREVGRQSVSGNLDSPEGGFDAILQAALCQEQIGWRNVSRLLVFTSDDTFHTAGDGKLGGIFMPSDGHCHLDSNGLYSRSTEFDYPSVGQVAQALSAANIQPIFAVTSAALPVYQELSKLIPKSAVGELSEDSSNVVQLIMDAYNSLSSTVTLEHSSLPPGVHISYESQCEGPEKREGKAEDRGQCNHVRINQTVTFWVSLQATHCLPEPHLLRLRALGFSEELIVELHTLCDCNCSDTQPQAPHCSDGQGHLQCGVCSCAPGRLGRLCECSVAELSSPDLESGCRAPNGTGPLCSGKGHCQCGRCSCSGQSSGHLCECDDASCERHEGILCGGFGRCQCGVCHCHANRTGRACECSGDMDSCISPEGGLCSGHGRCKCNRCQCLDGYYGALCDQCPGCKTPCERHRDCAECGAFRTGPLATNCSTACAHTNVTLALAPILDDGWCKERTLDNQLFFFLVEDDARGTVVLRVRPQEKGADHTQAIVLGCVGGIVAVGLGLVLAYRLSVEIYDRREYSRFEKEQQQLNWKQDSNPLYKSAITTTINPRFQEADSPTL
T2 sequence (P38570 19-1124 limits assumed, chain 1 of 2): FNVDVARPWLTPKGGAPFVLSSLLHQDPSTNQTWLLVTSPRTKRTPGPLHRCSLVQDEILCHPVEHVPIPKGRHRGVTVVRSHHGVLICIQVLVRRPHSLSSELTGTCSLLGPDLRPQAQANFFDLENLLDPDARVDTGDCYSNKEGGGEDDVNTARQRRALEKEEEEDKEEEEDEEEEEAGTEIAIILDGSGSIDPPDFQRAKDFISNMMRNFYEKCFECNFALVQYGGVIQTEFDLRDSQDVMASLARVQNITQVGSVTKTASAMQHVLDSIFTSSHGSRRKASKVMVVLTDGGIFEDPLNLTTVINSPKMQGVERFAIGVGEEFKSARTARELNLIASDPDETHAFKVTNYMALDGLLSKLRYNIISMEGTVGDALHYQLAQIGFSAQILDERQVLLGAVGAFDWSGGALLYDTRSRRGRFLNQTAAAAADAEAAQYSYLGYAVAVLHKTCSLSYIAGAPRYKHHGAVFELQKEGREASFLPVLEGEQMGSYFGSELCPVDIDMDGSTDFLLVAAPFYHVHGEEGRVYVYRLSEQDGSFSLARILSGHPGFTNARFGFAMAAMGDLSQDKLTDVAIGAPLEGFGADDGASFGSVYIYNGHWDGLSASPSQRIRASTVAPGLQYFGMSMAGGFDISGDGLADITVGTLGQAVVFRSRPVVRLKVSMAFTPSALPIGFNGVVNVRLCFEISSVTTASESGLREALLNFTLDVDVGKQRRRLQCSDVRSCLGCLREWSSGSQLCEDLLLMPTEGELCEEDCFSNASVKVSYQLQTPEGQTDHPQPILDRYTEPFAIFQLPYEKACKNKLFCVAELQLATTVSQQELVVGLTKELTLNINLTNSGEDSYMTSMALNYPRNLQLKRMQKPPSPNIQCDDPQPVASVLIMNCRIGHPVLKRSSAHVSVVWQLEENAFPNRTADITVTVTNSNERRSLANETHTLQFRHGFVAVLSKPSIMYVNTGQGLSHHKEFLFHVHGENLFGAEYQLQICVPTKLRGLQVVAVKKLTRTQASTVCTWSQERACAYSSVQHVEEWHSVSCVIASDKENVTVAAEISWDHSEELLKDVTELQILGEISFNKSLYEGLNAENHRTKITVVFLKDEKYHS
T2 sequence (P26010 20-723 limits assumed, chain 2 of 2): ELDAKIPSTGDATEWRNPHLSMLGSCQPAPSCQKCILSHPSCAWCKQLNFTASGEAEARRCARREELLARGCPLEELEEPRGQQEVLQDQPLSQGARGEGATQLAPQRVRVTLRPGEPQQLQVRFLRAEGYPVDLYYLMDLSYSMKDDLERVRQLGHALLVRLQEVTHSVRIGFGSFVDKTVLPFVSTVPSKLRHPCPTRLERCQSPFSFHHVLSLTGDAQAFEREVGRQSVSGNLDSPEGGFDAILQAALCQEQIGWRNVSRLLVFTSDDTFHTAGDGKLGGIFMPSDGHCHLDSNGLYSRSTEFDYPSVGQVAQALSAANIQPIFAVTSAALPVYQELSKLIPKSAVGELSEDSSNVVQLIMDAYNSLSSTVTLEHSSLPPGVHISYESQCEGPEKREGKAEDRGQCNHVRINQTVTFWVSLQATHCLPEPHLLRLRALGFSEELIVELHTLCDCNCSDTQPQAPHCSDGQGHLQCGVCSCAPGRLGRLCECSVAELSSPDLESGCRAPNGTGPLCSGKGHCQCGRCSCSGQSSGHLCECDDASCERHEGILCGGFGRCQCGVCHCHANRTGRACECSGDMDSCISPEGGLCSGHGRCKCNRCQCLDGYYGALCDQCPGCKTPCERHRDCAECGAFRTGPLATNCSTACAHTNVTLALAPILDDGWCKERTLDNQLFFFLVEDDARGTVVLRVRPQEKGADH

% binding of the fluorescently labeled mAb (IgG pre-incubation = 100) [1]	% binding of the fluorescently labeled mAb (IgG pre-incubation = 100) [2]	% binding of the fluorescently labeled mAb (IgG pre-incubation = 100) [3]	EC50 (read off the curve) [4]	EC50 (read off the curve) [5]	EC50 (read off the curve) [6]	EC50 (read off the curve) [7]	Binder
0.7%	84.9%	18.7%	–	–	–	–	hCD103.06A (antibody, mouse IgG1, V domains shown, also called clone 06A; hCD103.06 mAb) VH: QVQLQQPGSELVRPGASVKLSCKASGYTFTSYWMHWVKQRHGQGLEWIGNIYPGSGSTNYDEKFKSKGTLTVDTSSSTAYMHLSSLTSEDSAVYYCTRGVYDNPYYFDYWGQGTTLTVSS VL: DIQMTQSSSNLSVSLGGRVTITCKASDHINNWLAWYQQKPGNAPRVLISGATSLETGVPSRFSGSGSGKDYTLSITSLQTEDVATYYCQQYWSIPLTFGAGTKLELK
92%	0.7%	73.2%	–	–	–	–	hCD103.07A (antibody, mouse IgG1, V domains shown, also called clone 07A) VH: EVQLQESGPSLVKPSQTLSLTCSVTGDSITSGYWNWIRKFPGNKLEYMGYITYSGSTYYNPSLKSRISITRDTSKNQYYLQLNSVTTEDTATYYCARNYYGSSSMDYWGQGTSVTVSS VL: DIVMTQSQKFMSTSVADRVSVTCKASQNVGSDVAWYQQKPGQSPKSLIYSASYRYSGVPDRFTGSGSGTDFTLTISNVQSEDLAEYFCQQYNSYPSTFGGGTKLEIK
83.9%	2.5%	81.8%	~0.003 µg/mL	~0.04 µg/mL	~0.04 µg/mL	–	hCD103.01A (antibody, V domains shown, Also tested labelled with AF647, conjugated with Df and labelled with 89Zr; these are written under this molecule; also called clone 01A; hCD103.01 mAb) VH: EVQLQESGPSLVKPSQTLSLTCSVTGDSITSGYWNWIRKFPGNKLEYMGYITYSGSTYYNPSLKSRISITRDTSKNQYYLQLNSVTTEDTATYYCTRHYYGSDAMDYWGQGTSVTVSS VL: DIVMTQSHKFMSTSVGDRVSITCKASQDVSIAVAWYQQRPGQSPKLLIYSASYRYTGVPDRFTGSGSGTDFTFTISSVQAEDLAVYYCQQHYSTPWTFGGGTKLEIK
94.6%	4.2%	101%	~0.003 µg/mL	~0.04 µg/mL	~0.04 µg/mL	~0.4 µg/mL	hCD103.05A (antibody, mouse IgG1, V domains shown, Also tested labelled with AF647, conjugated with Df and labelled with 89Zr; these are written under this molecule; also called clone 05A; hCD103.05 mAb) VH: EVQLQQSGPELEKPGASAKISCKASGYSFTGYNMNWVKQSNGKSLEWIGNIDPYYGGTSYNQKFKGKATLTVDKSSSTAYMQLKSLTSEDSAVYYCARSFYGYDAGSPYNYAMDYWGQGTPVTVSP VL: DIVMTQSHKFMSTSVGDRVSITCKASQDVGTFVAWYQQKPGQSPKLLIYWASTRHTGVPDRFTGSGSGTDFTLTISNVQSEDLADYFCHQYSSYPYTFGGGTQLEIK
